# In patent CN116813768A:
# B1: 大熊猫TSHβ单克隆抗体 (secreted by hybridoma cell line TSHB-A, CCTCC NO: C202282) (antibody, V domains shown)
# VH: EVKLVESGGGLVKPGGSLKLSCAASGFIFRRYAMSWVRQTPEKRLEWVAAISSGGNIYYLDNVKGRFTISRDDARNILYLQMSSLRSEDTAMYYCARDDYDEDWYFDVWGAGTTVTVSS
# VL: DVLMTQIPLSLPVSLGDQASISCRSSQSIVHSNGNTYLEWYLQKPGQSPNLLIYKVSNRFSGVPDRFSGSGSGTDFTLKISRVEAEDLGVYYCFQGSHLPPTFGGGTKLEIK
# Target: 大熊猫TSHβ特异序列(TSHβ-1), synthetic peptide (大熊猫 (giant panda))
# Assay: indirect ELISA, TSHβ-1 peptide coated at 2 μg/mL, serial dilutions of purified antibody, OD450
binder,measurement,value
B1,效价 (ELISA titer) (fold dilution),> 1e+06
